{"source": "patent US11505583B2", "about": "“Proteins for the treatment of epithelial barrier function disorders” (Second Genome, Inc., priority 2018, dated 2022)", "molecules": {"B1": {"name": "SG-11 (SEQ ID NO:7): Recombinant SG-11 with N-terminal methionine, 233 amino acids, no N-terminal tag (protein)", "chain": "MLEGEESVVYVGKKGVIASLDVETLDQSYYDETELKSYVDAEVEDYTAEHGKNAVKVESLKVEDGVAKLKMKYKTPEDYTAFNGIELYQGKVVASLAAGYVYDGEFARVEEGKVVGAATKQDIYSEDDLKVAIIRANTDVKVDGEICYVSCQNVKLTGKDSVSIRDGYYLETGSVTASVDVTGQESVGTEQLSGTEQMEMTGEPVNADDTEQTEAAAGDGSFETDVYTFIVYK"}, "B2": {"name": "SG-11V5: SG-11 variant SEQ ID NO:19 comprising N53S, N83S, C147V, C151S with respect to SEQ ID NO:7 (protein)", "chain": "B1 chain with N53S, N83S, C147V, C151S"}}, "system": "C57BL/6 mice given 2.5% DSS in drinking water", "test": "Concurrent (prophylactic) DSS model of inflammatory bowel disease (Example 4, Example 13A)", "assay_type": "in vivo, mouse", "conditions": "for 4KDa-FITC signal in serum / Colon length: vs DSS+vehicle; for Colon length: FIG. 22A", "description": "Specifically, the mice in Examples 4 and 5 were treated with dextran sodium sulfate (DSS), a chemical known to induce intestinal epithelial damage and thereby reduce intestinal barrier integrity and function. DSS mice are well-accepted models of colitis. In Example 4, mice were treated with SG-11 protein approximately concurrent with (6 hours prior to) administration of DSS. In Example 5, mice were treated with DSS for 6 days prior to treatment with SG-11 protein.\nThe graphs presented in Example 4 represent data pooled from 3 independent experiments, each using 10 mice (n=30). The SG-11 protein used in these experiments was the mature protein (no signal peptide) without an N-terminal tag and comprising the amino acid sequence of SEQ ID NO:3. For 2 experiments, the SG-11 protein consisted of SEQ ID NO:5; for the third experiment, the SG-11 protein consisted of SEQ ID NO:7.\nEight-week old C57BL/6 mice were housed 5 animals were cage and given food and water ad libitum for 7 days. Following the 7-day acclimation period, treatments were initiated concurrently with addition of 2.5% DSS to the drinking water. […] The mice were treated with 2.5% dextran sodium sulfate (DSS) in their drinking water for 6 days. Treatments were continued with SG-11 or Gly2-GLP2 twice a day (b.i.d.) in the morning and evening (every 8 and 16 hr) with i.p. injections at 50 nmoles/kg. Fresh 2.5% DSS drinking water was prepared every 2 days.\nOn day six, mice were fasted for four hours and then orally gavaged with 600 mg/kg 4KDa dextran labeled with fluorescein isothiocyanate (FITC) [4KDa-FITC]. One hour after the 4KDa-FITC gavage mice were euthanized, blood was collected and FITC signal was measured in serum. […] The magnitude of 4KDa-FITC dextran translocation observed for SG-11 was similar to the positive control of Gly2-GLP2. Results are shown in FIG. 3, and are presented as mean±SEM. The graph in FIG. 3 represents data pooled from 3 independent experiments (n=30).\nSG-11 was also assessed for its effects on the levels of LPS binding protein (LBP) in the blood of the DSS animal with and without SG-11 administration. LPS binding protein (LBP), which has been linked to clinical disease activity in subjects with inflammatory bowel disease, was also measured by ELISA in the serum of mice tested in the DSS model described in Example 4. […] Results are shown in FIG. 4, and are presented as mean±SEM. The graph in FIG. 4 represents data pooled from 3 independent experiments (n=30).\nBody weight was measured daily from mice included in the DSS model described in this Example. Percent change from starting weight on day 0 was determined for each mouse. […] Weight loss in mice treated with SG-11 at day 6 was similar to weight loss observed with Gly2-GLP2. The graph in FIG. 5 represents data pooled from two independent experiments (n=20).\nGross pathology observations were made in mice included in the concurrent DSS model performed in this Example. […] No differences in clinical scores were observed between mice given DSS and treated with either Gly2-GLP2 or SG-11. The scoring system used was: (0)=no gross pathology, (1)=streaks of blood visible in feces, (2)=completely bloody fecal pellets, (3) bloody fecal material visible in cecum, (4) bloody fecal material in cecum and loose stool, (5)=rectal bleeding. The graph in FIG. 6 represents data pooled from 3 independent experiments (n=30).\nColon length was measured in mice included in the DSS model described in Example 7. […] The graphs in FIGS. 8A and 8B represent data pooled from 3 independent experiments (n=30). Data are graphed as mean±SEM and are pooled from three independent experiments (n=30). Statistical analysis was performed by a one-way ANOVA followed by a Fisher's LSD multiple comparisons test.\nBriefly, in the first DSS mouse model (Example 13A), mice were treated on day zero with test compound intraperitoneally (i.p.) and 6 hours later DSS treatment was initiated. […]", "note": "Residue numbers refer to the chain shown, from its start. Numbers in names are those of the source."}
{"molecule": "B1", "values": [{"measurement": "4KDa-FITC signal in serum", "setting": "Example 13A, 50 nmoles/kg i.p. twice a day, p=0.04, FIG. 18A", "value": "significantly reduced the 4KDa-FITC signal"}, {"measurement": "Colon length", "setting": "Example 13A", "value": "significant increase in the colon length"}]}
{"molecule": "B2", "values": [{"measurement": "Gross pathology score (0-5)", "setting": "Example 13, 160 nmoles/kg, dose dependent effect, p<0.002, FIG. 21", "value": "significant improvement"}, {"measurement": "4KDa-FITC signal in serum", "setting": "Example 13, FIG. 18B, p=0.21", "value": "also reduced the 4KDa-FITC signal, although the difference was not reach statistical significance"}, {"measurement": "LBP in serum (ELISA)", "setting": "Example 13A, 158 nmoles/kg i.p. twice a day, p=0.003, FIG. 19A", "value": "significant reduction in LBP production"}, {"measurement": "Body weight", "setting": "Example 13A, 158 nmoles/kg, day 6, FIG. 20A", "value": "significant improvement in body weight"}, {"measurement": "Colon length", "setting": "Example 13A", "value": "significant increase in the colon length"}, {"measurement": "Dose dependence of effect on colon length", "setting": "prophylactic DSS model, 16, 50 and 158 nmoles/kg", "value": "no dose-dependent effect on colon length"}]}
